Experimental data as given in doi:10.1101/2020.05.13.094045.

B1: AtTCP13-RFP (natural protein)
chain: MNIVSWKDANDEVAGGATTRREREVKEDQEETEVRATSGKTVIKKQPTSISSSSSSWMKSKDPRIVRVSRAFGGKDRHSKVCTLRGLRDRRVRLSVPTAIQLYDLQERLGVDQPSKAVDWLLDAAKEEIDELPPLPISPENFSIFNHHQSFLNLGQRPGQDPTQLGFKINGCVQKSTTTSREENDREKGENDVVYTNNHHVGSYGTYHNLEHHHHHHQHLSLQADYHSHQLHSLVPFPSQILVCPMTTSPTTTTIQSLFPSSSSAGSGTMETLDPRQMVSHFQMPLMGNSSSSSSQNISTLYSLLHGSSSNNGGRDIDNRMSSVQFNRTNSTTTANMSRHLGSERCTSRGSDHHM
B2: AtTCP4-RFP (natural protein)
chain: MSDDQFHHPPPPSSMRHRSTSDAADGGCGEIVEVQGGHIVRSTGRKDRHSKVCTAKGPRDRRVRLSAHTAIQFYDVQDRLGFDRPSKAVDWLIKKAKTSIDELAELPPWNPADAIRLAAANAKPRRTTAKTQISPSPPPPQQQQQQQQLQFGVGFNGGGAEHPSNNESSFLPPSMDSDSIADTIKSFFPVIGSSTEAPSNHNLMHNYHHQHPPDLLSRTNSQNQDLRLSLQSFPDGPPSLLHHQHHHHTSASASEPTLFYGQSNPLGFDTSSWEQQSSEFGRIQRLVAWNSGGGGGATDTGNGGGFLFAPPTPSTTSFQPVLGQSQQLYSQRGPLQSSYSPMIRAWFDPHHHHQSISTDDLNHHHHLPPPVHQSAIPGIGFASGEFSSGFRIPARFQGQEEEQHDGLTHKPSSASSISRH

Assays:
[1] = molecular target: AP_SAP11-like_PM19^Δ40-56-GFP ('Candidatus Phytoplasma mali' strain PM19); assay: FRET or BRET
[2] = molecular target: AP_SAP11-like_PM19-GFP ('Candidatus Phytoplasma mali' strain PM19); assay: FRET or BRET

Binder	FRET efficiency [1] [%]	FRET efficiency [2] [%]
B1	8	9
B2		11
